Experiments:
[1] = molecular target: FLAG-tagged AnkG UPA-DD domains without the E35a-encoded peptide (mouse); experiment: co-IP; N2a cells 48 h after transfection with FLAG-UPA-DD minigene plasmids with or without E35a; Pierce IP lysis buffer; anti-FLAG M2 antibody on Protein G magnetic beads; immunoblot with anti-IP3R1
[2] = molecular target: ankyrin-G (AnkG) lacking the E35a-encoded peptide, endogenous, Ank3 E35a-/- mouse cerebellum (mouse (endogenous in cerebellum)) (UniProt G5E8K5); experiment: co-IP; mouse cerebellum whole tissue lysate (500 μg total protein; WT or Ank3 E35a-/-); anti-AnkG antibody (Santa Cruz sc-12719) on Protein G magnetic beads, overnight at 4°C; washed with NT2 buffer; immunoblot with anti-IP3R1 or anti-Na-K ATPase; normalised to the AnkG 190 kDa isoform

Sequence of FLAG-tagged AnkG UPA-DD domains without the E35a-encoded peptide (mouse) (G5E8K5 whole entry, the tested form may be a part, canonical isoform): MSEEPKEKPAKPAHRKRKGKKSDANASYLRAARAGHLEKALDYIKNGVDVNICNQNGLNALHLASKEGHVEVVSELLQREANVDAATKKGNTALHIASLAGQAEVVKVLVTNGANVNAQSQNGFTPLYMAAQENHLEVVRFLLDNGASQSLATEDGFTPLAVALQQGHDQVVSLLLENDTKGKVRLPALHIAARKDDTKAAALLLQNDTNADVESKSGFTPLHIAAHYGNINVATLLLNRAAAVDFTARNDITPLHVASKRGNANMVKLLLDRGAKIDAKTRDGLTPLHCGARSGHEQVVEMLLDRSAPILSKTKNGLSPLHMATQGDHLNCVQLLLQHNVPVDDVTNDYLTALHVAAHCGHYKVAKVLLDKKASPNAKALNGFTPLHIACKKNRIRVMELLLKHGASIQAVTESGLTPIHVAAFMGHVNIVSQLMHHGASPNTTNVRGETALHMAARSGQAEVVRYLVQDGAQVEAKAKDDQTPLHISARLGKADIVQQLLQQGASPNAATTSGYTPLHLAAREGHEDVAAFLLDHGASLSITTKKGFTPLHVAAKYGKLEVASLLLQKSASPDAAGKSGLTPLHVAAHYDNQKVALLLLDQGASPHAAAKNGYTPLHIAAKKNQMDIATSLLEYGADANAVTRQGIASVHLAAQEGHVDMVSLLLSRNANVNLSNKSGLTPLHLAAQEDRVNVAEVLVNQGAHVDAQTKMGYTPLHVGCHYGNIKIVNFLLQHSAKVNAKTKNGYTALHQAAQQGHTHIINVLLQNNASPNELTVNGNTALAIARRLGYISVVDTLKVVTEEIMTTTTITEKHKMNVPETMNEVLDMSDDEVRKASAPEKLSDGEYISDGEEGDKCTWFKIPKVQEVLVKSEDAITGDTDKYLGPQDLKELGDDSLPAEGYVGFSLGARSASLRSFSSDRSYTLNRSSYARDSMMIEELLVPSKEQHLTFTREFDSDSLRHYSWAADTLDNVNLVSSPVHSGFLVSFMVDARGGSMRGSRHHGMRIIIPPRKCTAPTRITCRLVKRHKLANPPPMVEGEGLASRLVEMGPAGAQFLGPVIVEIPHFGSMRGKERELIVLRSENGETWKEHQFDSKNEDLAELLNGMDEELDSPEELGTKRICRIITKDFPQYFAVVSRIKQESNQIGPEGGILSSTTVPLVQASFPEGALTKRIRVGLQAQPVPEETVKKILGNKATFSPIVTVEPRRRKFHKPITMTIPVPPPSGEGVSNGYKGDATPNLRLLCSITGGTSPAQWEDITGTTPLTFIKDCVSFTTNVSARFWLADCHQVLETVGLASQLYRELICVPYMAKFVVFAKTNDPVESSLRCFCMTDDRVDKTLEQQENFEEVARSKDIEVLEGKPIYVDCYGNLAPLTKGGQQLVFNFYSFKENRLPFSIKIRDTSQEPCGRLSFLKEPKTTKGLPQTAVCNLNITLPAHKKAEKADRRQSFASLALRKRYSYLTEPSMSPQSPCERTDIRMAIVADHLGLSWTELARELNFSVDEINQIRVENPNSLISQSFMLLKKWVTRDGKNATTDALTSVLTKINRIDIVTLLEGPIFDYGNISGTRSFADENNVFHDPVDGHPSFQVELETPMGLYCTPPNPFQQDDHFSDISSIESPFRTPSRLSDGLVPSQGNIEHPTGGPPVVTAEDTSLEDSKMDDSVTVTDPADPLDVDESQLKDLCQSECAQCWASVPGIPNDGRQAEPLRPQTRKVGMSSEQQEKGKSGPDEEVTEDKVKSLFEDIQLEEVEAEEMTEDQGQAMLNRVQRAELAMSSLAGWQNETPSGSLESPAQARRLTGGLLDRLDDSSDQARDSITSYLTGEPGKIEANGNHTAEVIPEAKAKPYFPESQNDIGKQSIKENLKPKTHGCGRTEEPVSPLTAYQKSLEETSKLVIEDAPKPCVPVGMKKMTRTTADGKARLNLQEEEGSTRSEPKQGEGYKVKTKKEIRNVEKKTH

Row | percent of InsP3R1 pulled down relative to UPA-DD with E35a [1] | percent reduction of co-precipitated InsP3R1 against WT [2] | Substance
1 | 30% | – | type 1 inositol trisphosphate receptor (InsP3R1), endogenous, N2a cells (from UniProt P11881 1-2749) (natural protein)
2 | – | 77% | type 1 inositol trisphosphate receptor (InsP3R1), endogenous, mouse cerebellum (from UniProt P11881 1-2749) (natural protein)

— article doi:10.64898/2025.12.12.693948
